Measurements as given in paper PMC5385343, “Crystal Structure of Glyceraldehyde-3-Phosphate Dehydrogenase from the Gram-Positive Bacterial Pathogen A. vaginae, an Immunoevasive Factor that Interacts with the Human C5a Anaphylatoxin” (Frontiers in Microbiology, 2017).

Tests used:
AvGAPDH = target: T1, AvGAPDH (Fannyhessea vaginae, UniProt F1T6A5); test: X-ray crystal structure, […] Å; type: binding; conditions: crystallised with 0.6 mM NAD+, 0.1 M sodium citrate pH 5.5, 20% PEG 3000; one NAD+ per protomer, active site
T1 construct: gene gap; full-length, 356 residues, N-terminal His6 tag and TEV site (tag removal not described), pET21b, E. coli Rosetta(DE3)pLysS; homotetramer

O=CC(O)COP(=O)(O)O = test: purified protein; conditions: 40 mM Tris-HCl pH 8.5, 2 mM EDTA, 25 °C, 0.1 μM enzyme, G3P varied 0.6-15 mM, co-substrates NAD+ and Pi, fixed concentrations not given
[1] = tested on: NC(=O)c1ccc[n+]([C@@H]2O[C@H](COP(=O)(O)OP(=O)(O)OC[C@H]3O[C@@H](n4cnc5c(N)ncnc54)[C@H](O)[C@@H]3O)[C@@H](O)[C@H]2O)c1; test: purified protein; conditions: 40 mM Tris-HCl pH 8.5, 2 mM EDTA, 25 °C, 0.1 μM enzyme, NAD+ varied 0.03-2 mM, co-substrates G3P and Pi, fixed concentrations not given, varied: cofactor
crystal structure = target: the molecule itself; test: crystal structure

For NC(=O)c1ccc[n+]([C@@H]2O[C@H](COP(=O)(O)OP(=O)(O)OC[C@H]3O[C@@H](n4cnc5c(N)ncnc54)[C@H](O)[C@@H]3O)[C@@H](O)[C@H]2O)c1 [NAD^+], which “X-ray crystal structure, 2.19 Å” value (AvGAPDH) is on record?
Its value is “NAD^+ molecules are tightly bound in an elongated cleft in all four protomers”.

With AvGAPDH (Fannyhessea vaginae DSM 15829) as the molecule, how does the Km (O=CC(O)COP(=O)(O)O) read?
Its Km is 2.6 ± 0.5 mM.

What about the Vmax (O=CC(O)COP(=O)(O)O) of the same molecule?
The Vmax was 342000 µM/min/mg.

What about the kcat (O=CC(O)COP(=O)(O)O) of the same molecule?
The kcat was 57 ± 6 s⁻¹.

What about the kcat/Km (O=CC(O)COP(=O)(O)O) of the same molecule?
The kcat/Km was 22000 ± 5000 M⁻¹ s⁻¹.

And the Km [1]?
Its Km is 0.08 ± 0.03 mM.

And the Vmax [1]?
Its Vmax is 186000 µM/min/mg.

And the kcat [1]?
Its kcat is 31 ± 3 s⁻¹.

What about the kcat/Km [1] of the same molecule?
The kcat/Km was 384000 ± 150000 M⁻¹ s⁻¹.

B1: D-glyceraldehyde-3-phosphate dehydrogenase from Atopobium vaginae, full-length, hexahistidine-tagged (enzyme)
chain: MKEDRLPANLAKGESMAVKVAINGFGRIGRLAFRQMFGHEGSEIVAINDLTDPKMLANLLKYDSSQGNYARNHSVVAGEDSITVDGKTIKIYKEADAHNLPWGELNVDVVLECTGFYTSKAKAQAHIDAGAKKVVISAPAGKDLPTIVYNVNHEILTKDDNIISAASCTTNCLAPMAKALNDFAPIQSGIMSTIHAFTGDQMVLDGPHRKGDLRRARAAAINIVPNSTGAAKAIGLVIPELNGKLIGSAQRVPVPTGSTTLLFAVVKSDKEITVDSINAAMKAASDPETFGYNEDPIVSSDIIGMTYGSLFDATQTMVQDLGNGLYQVEVVSWYDNENSYTSQMVRTIKYFEKFVA
notes: also called AvGAPDH; GAPDH from A. vaginae; source: E. coli Rossetta(DE3)pLysS, purified (HisTrap, Superdex 200)
For B1, which “stoichiometry N” value (crystal structure) is on record?
The value was 4.
